Results: article PMC7049697

Assays:
[1] = target: T1, Rap1-DBD P520L (Saccharomyces cerevisiae, UniProt P11938 358-601, P520L); experiment: EMSA
T1 sequence: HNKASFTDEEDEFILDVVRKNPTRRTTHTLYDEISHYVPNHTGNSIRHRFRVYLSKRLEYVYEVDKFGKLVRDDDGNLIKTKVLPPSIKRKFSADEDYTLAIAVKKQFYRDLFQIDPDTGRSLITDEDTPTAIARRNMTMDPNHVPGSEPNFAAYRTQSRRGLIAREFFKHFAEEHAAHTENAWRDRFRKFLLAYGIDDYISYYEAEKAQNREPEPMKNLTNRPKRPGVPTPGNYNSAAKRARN

[2] = target: T2, Rap1-DBD (Saccharomyces cerevisiae, UniProt P11938 358-601); experiment: EMSA
T2 sequence: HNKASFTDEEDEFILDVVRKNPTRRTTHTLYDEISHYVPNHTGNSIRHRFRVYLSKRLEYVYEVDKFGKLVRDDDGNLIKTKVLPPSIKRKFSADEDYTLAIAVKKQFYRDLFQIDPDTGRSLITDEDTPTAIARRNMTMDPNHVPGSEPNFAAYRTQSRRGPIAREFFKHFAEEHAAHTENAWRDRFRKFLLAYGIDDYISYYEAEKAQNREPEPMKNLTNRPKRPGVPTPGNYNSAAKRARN

B1: 21 bp telomeric Rap1 site dsDNA (dsDNA)
DNA 1: CCGCACACCCACACACCAGTG
DNA 2: CACTGGTGTGTGGGTGTGCGG
What does the source list for B1?
binding result [1]: binds; binding result [2]: binds
